From patent US10413588B2, “Probiotic function of human intelectin” (Wisconsin Alumni Research Foundation, priority 2015, dated 2019)

Tests used:
[1] = Microbial Glycan Microarray (MGMv2); format: binding, S. pneumonia; details: Strep-hIntL-1 50 μg/mL; α-Galf containing glycan
Method: (§1) Strep-hIntL-1 was used to interrogate the Microbial Glycan Microarray version 2 (MGMv2). Construction of the MGMv2 is previously described. Briefly, bacterial polysaccharide samples were dissolved and diluted to 0.5 mg/mL in printing buffer (150 mM sodium phosphate buffer (8.4)+0.005% Tween-20). Samples were immobilized on NETS-activated glass slides (SlideH, Schott/Nexterion) using a MicroGrid II (Digilab) contact microarray printer equipped with SMP-4B printing pins (Telechem). Six replicates of each bacterial glycan sample were printed. Covalent coupling of glycans to the surface was facilitated by incubation for 1 hour postprint at 100% relative humidity. The remaining reactive NHS-moieties were quenched using a blocking solution (50 mM ethanolamine in 50 mM borate buffer (9.2)). Blocked slides were stored at −20° C. until assays were performed. […] The Strep-Tag® II on bound hIntL-1 was detected using StrepMAB-Classic Chromeo647 (10 μg/mL, IBA GmbH Lifesciences) diluted in binding buffer applied directly to the array surface and allowed to incubate for 1 hour. […] Signal data was calculated as the average of 4 values after removing the high and low values of the 6 replicates. Data were plotted using Excel (Microsoft) as average Relative Fluorescence Units (RFU) versus print identification number. […]

[2] = tested on: Bacteroides xylanisolvens; experiment: Flow cytometry binding to microbiome strain; details: fixed cells; 15 μg/mL Strep-tagged-hIntL-1, 10 mM CaCl2 vs EDTA control
Method: (§2) The inventors have begun to examine the binding of hIntL-1 to bacteria known to reside in the human intestine. Strains of relevant bacteria were grown anaerobically. The samples are fixed using 1% formaldehyde for 30 min on ice. […] Fixed cells are exposed to Strep-tagged (IBS Lifesciences) -hIntL-1. The Strep-tag not necessary for function but added because it facilitates purification and detection. Cells were analyzed by flow cytometry on a BD FACSCalibur or LSRII. Bacterial cells were identified using either propidium iodide (PI) or DAPI. An anti-Strep-tag antibody conjugated to the fluorophore Oyster 645 nm was used to detect the population of bacteria bound by hIntL-1.
(§3) To determine whether observed binding is dependent on hIntL-1 interaction with microbial glycans, the inventors take advantage of critical role of calcium ions in hIntL-1 binding. The addition of the calcium ion chelator EDTA, which sequesters bound calcium ions, serves as an important specificity control. Fixed bacteria are incubated in 20 mM HEPES (pH 7.2), 150 mM NaCl, 10 mM CaCl2, 15 μg/mL Strep-tagged-hIntL-1, 0.1% bovine serum albumin (BSA), 0.05% Tween-20, 2 μg/mL StrepMAB-Classic conjugated to Oyster 645 (IBA Lifesciences, cat. no.: 2-1555-050). For the cells incubated in the absence of calcium ions, the following solution is used 20 mM HEPES (pH 7.2), 150 mM NaCl, 5 mM EDTA, 15 μg/mL Strep-tagged-hIntL-1, 0.1% bovine serum albumin (BSA), 0.05% tween-20, 2 μg/mL StrepMAB-Classic conjugated to Oyster 645 (IBA Lifesciences, cat. no.: 2-1555-050). Cell samples were analyzed by flow cytometry consecutively using an identical instrument setting. The percentages of unstained cells, cells stained in the presence of calcium ions, and cells stained in the presence of EDTA were directly compared. Increased hIntL-1 binding signal in the presence of calcium ions when compared to unstained cells or the EDTA sample indicates specific binding to the surface glycans of that strain of bacteria. FIG. 17 is representative of the data obtained. A list of bacteria bound by hIntL-1 can be found in Table 1. […]

[3] = tested on: Lactobacillus reuteri; experiment: Flow cytometry binding to microbiome strain; details: fixed cells; 15 μg/mL Strep-tagged-hIntL-1, 10 mM CaCl2 vs EDTA control
Method: as §2, §3

[4] = tested on: Bifidobacterium dentium; experiment: Flow cytometry binding to microbiome strain; details: fixed cells; 15 μg/mL Strep-tagged-hIntL-1, 10 mM CaCl2 vs EDTA control
Method: as §2, §3

[5] = Microbial Glycan Microarray (MGMv2); format: binding, Shigella boydii; details: Strep-hIntL-1 50 μg/mL; terminal α-Galf residue
Method: as §1

[6] = Microbial Glycan Microarray (MGMv2); format: binding, Salmonella enterica; details: Strep-hIntL-1 50 μg/mL; terminal α-Galf residue
Method: as §1

[7] = hIntL-1 carbohydrate binding ELISA-like assay; details: ligands other than β-Galf
Method: To fabricate carbohydrate-displaying surfaces, 0.5 μg of streptavidin (Prozyme, cat. no. SA20) was adsorbed onto a Maxisorp (Nunc) flat bottom 96 well plate in PBS. Wells were washed with PBS and then coated with 5 μM of carbohydrate-biotin ligand in PBS for 1 hour at 22° C. Wells were blocked with bovine serum albumin (BSA) in ELISA buffer (20 mM HEPES (7.4) 150 mM NaCl, 10 mM CaCl2, and 0.1% tween-20). Samples containing hIntL-1 were prepared by serial dilution into ELISA buffer+0.1% BSA and added to wells for 2 hours at 22° C. Wells were washed four times with ELISA buffer. Bound hIntL-1 was detected using 0.75 μg/mL of a sheep IgG hIntL-1 antibody (R&D Systems, cat. no. AF4254) in ELISA buffer+0.1% BSA for 2 hours at 22° C. Wells were washed with ELISA buffer. A donkey anti-sheep IgG horseradish peroxidase (HRP) conjugate (Jackson ImmunoResearch Laboratories) was added at a 1:5,000 dilution in ELISA buffer+0.1% BSA for 1 hour at 22° C. Wells were washed and hIntL-1 was detected colorimetrically with addition of 1-Step Ultra TMB-ELISA (Pierce). Once sufficient signal was achieved (typically <2 min.), the reaction was quenched with addition of equal volume 2 M H2SO4. Plates were read at 450 nm on an ELx800 plate reader (Bio-Tek). When testing the Ca^2+ dependency of hIntL-1, 1 mM EDTA replaced 10 mM CaCl2 in all steps. Data were analyzed on Prism6 (GraphPad). […]

B1: hIntL-1: human lectin intelectin-1, accession no. Q8WWA0; recombinant disulfide-linked trimer from HEK 293T cells, used also N-terminally Strep-tagged (Strep-hIntL-1) (protein, listed as Homo sapiens)
chain: MNQLSFLLFLIATTRGWSTDEANTYFKEWTCSSSPSLPRSCKEIKDECPSAFDGLYFLRTENGVIYQTFCDMTSGGGGWTLVASVHENDMRGKCTVGDRWSSQQGSKAVYPEGDGNWANYNTFGSAEAATSDDYKNPGYYDIQAKDLGIWHVPNKSPMQHWRNSSLLRYRTDTGFLQTLGHNLFGIYQKYPVKYGEGKCWTDNGPVIPVVYDFGDAQKTASYYSPYGQREFTAGFVQFRVFNNERAANALCAGMRVTGCNTEHHCIGGGGYFPEASPQQCGDFSGFDWSGYGTHVGYSSSREITEAAVLLFYR
For B1, which “average signal on microbial glycan array” value [1] is on record?
The value was −9.6 RFU.

What about the “binding of hIntL-1 to Bacteroides xylanisolvens by flow cytometry” value [2] of the same molecule?
The value was “not”.

What about the “binding of hIntL-1 to Lactobacillus reuteri by flow cytometry” value [3] of the same molecule?
Its value is “binds”.

What about the “binding of hIntL-1 to Bifidobacterium dentium by flow cytometry” value [4] of the same molecule?
The value was “binds”.

What about the “signal on microbial glycan array” value [5] of the same molecule?
The value was 26 RFU.

And the “signal on microbial glycan array” value [6]?
The value was 66 RFU.

What about the “binding to other immobilized carbohydrate ligands” value [7] of the same molecule?
The value was “not detected”.
